According to paper PMC3642082 (PLoS Pathogens, 2013):

What was measured:
[1] = target: T1, JRFL gp120 monomer expressed in HEK 293S cells (HIV-1 clade B, isolate JR-FL, UniProt Q75760, strain); experiment: ITC; conditions: both partners purified
T1 construct: also called gp120 with immature oligomannose glycans

soluble CD4 = target: T2, soluble CD4 (UniProt P01730); experiment: ITC; conditions: both partners purified
T2 construct: also called sCD4

Binder	binding result [1]	Kd (soluble CD4) [nM]
PGT123 Fab (Fab, V domains shown) VH: QLHLQESGPGLVKPPETLSLTCSVSGASINDAYWSWIRQSPGKRPEWVGYVHHSGDTNYNPSLKRRVTFSLDTAKNEVSLKLVDLTAADSATYFCARALHGKRIYGIVALGELFTYFYMDVWGKGTAVTVSS VL: SSMSVSPGETAKISCGKESIGSRAVQWYQQKPGQPPSLIIYNNQDRPAGVPERFSASPDFRPGTTATLTITNVDAEDEADYYCHIYDARGGTNWVFDRGTTLTVL	binds	–
PGT121 Fab (Fab, V domains shown) VH: QMQLQESGPGLVKPSETLSLTCSVSGASISDSYWSWIRRSPGKGLEWIGYVHKSGDTNYSPSLKSRVNLSLDTSKNQVSLSLVAATAADSGKYYCARTLHGRRIYGIVAFNEWFTYFYMDVWGNGTQVTVSS VL: DISVAPGETARISCGEKSLGSRAVQWYQHRAGQAPSLIIYNNQDRPSGIPERFSGSPDSPFGTTATLTITSVEAGDEADYYCHIWDSRVPTKWVFGGGTTLTVL	binds	–
PGT122 Fab (Fab, V domains shown) VH: QVHLQESGPGLVKPSETLSLTCNVSGTLVRDNYWSWIRQPLGKQPEWIGYVHDSGDTNYNPSLKSRVHLSLDKSKNLVSLRLTGVTAADSAIYYCATTKHGRRIYGVVAFKEWFTYFYMDVWGKGTSVTVSS VL: VSVAPGQTARITCGEESLGSRSVIWYQQRPGQAPSLIIYNNNDRPSGIPDRFSGSPGSTFGTTATLTITSVEAGDEADYYCHIWDSRRPTNWVFGEGTTLIVL	binds	–
JRFL gp120 monomer (near full-length gp120 monomeric construct) (natural protein, also called monomeric gp120) not shown	–	21
